Values quoted from earlier work in article PMC9539805.

Assays:
[1] = target: spike protein RBD (SARS-CoV-2) (UniProt P0DTC2)
[2] = target: spike protein (SARS-CoV-2) (UniProt P0DTC2)

For CV-N (from UniProt P81180), the Kd [1] is given as 260 µM and the Kd [2] is given as 18.6 µM.
